Measurements: IntAct's records for PubMed 16525023

B1: 1-phosphatidylinositol 4,5-bisphosphate phosphodiesterase gamma-1 (Homo sapiens), P19174 (parent)
chain: MAGAASPCANGCGPGAPSDAEVLHLCRSLEVGTVMTLFYSKKSQRPERKTFQVKLETRQITWSRGADKIEGAIDIREIKEIRPGKTSRDFDRYQEDPAFRPDQSHCFVILYGMEFRLKTLSLQATSEDEVNMWIKGLTWLMEDTLQAPTPLQIERWLRKQFYSVDRNREDRISAKDLKNMLSQVNYRVPNMRFLRERLTDLEQRSGDITYGQFAQLYRSLMYSAQKTMDLPFLEASTLRAGERPELCRVSLPEFQQFLLDYQGELWAVDRLQVQEFMLSFLRDPLREIEEPYFFLDEFVTFLFSKENSVWNSQLDAVCPDTMNNPLSHYWISSSHNTYLTGDQFSSESSLEAYARCLRMGCRCIELDCWDGPDGMPVIYHGHTLTTKIKFSDVLHTIKEHAFVASEYPVILSIEDHCSIAQQRNMAQYFKKVLGDTLLTKPVEISADGLPSPNQLKRKILIKHKKLAEGSAYEEVPTSMMYSENDISNSIKNGILYLEDPVNHEWYPHYFVLTSSKIYYSEETSSDQGNEDEEEPKEVSSSTELHSNEKWFHGKLGAGRDGRHIAERLLTEYCIETGAPDGSFLVRESETFVGDYTLSFWRNGKVQHCRIHSRQDAGTPKFFLTDNLVFDSLYDLITHYQQVPLRCNEFEMRLSEPVPQTNAHESKEWYHASLTRAQAEHMLMRVPRDGAFLVRKRNEPNSYAISFRAEGKIKHCRVQQEGQTVMLGNSEFDSLVDLISYYEKHPLYRKMKLRYPINEEALEKIGTAEPDYGALYEGRNPGFYVEANPMPTFKCAVKALFDYKAQREDELTFIKSAIIQNVEKQEGGWWRGDYGGKKQLWFPSNYVEEMVNPVALEPEREHLDENSPLGDLLRGVLDVPACQIAIRPEGKNNRLFVFSISMASVAHWSLDVAADSQEELQDWVKKIREVAQTADARLTEGKIMERRKKIALELSELVVYCRPVPFDEEKIGTERACYRDMSSFPETKAEKYVNKAKGKKFLQYNRLQLSRIYPKGQRLDSSNYDPLPMWICGSQLVALNFQTPDKPMQMNQALFMTGRHCGYVLQPSTMRDEAFDPFDKSSLRGLEPCAISIEVLGARHLPKNGRGIVCPFVEIEVAGAEYDSTKQKTEFVVDNGLNPVWPAKPFHFQISNPEFAFLRFVVYEEDMFSDQNFLAQATFPVKGLKTGYRAVPLKNNYSEDLELASLLIKIDIFPAKENGDLSPFSGTSLRERGSDASGQLFHGRAREGSFESRYQQPFEDFRISQEHLADHFDSRERRAPRRTRVNGDNRL

Variants of: B1
Settings: with akt1_human AKT1, P31749
akt1_human AKT1, P31749, sequence (P31749 whole entry): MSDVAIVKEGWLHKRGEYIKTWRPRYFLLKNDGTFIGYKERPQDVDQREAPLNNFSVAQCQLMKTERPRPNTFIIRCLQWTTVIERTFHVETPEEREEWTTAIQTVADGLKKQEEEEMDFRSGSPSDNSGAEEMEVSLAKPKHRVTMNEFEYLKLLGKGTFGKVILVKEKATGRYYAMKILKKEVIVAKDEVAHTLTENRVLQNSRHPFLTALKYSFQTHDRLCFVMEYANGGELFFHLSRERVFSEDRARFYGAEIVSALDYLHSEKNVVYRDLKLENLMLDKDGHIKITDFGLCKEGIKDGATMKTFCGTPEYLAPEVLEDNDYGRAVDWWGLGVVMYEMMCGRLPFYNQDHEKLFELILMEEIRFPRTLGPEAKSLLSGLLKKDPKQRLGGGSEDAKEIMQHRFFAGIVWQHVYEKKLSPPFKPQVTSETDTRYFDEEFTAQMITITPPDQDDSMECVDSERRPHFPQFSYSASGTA
Y783F was tested, and the “effect of a mutation on the interaction” value was “disrupting interaction”. Y771F was tested, and the “effect of a mutation on the interaction” value was “decreasing interaction”.
